Here are results for four molecules from paper PMC8044443, “M. bovis BCG Moreau N-Terminal Loss Leads to a Less Stable Dodecin With Lower Flavin Binding Capacity” (Frontiers in Cellular and Infection Microbiology, 2021).

Series [1] deals with Native M. bovis BCG Moreau dodecin (M. bovis BCG Moreau (endogenous)). In words: SDS-PAGE and western blotting of oligomer bands; logarithmic phase mycobacterial lysates incubated 30 min at 40 or 80 °C, supernatants on SDS-PAGE, blot with anti-dodecin serum. On the technique in general: A western blot detects proteins with antibodies after separation by electrophoresis.
For series [2] the target is unchanged. Nature of the series: SDS-PAGE and western blotting of oligomer bands; 20 ug total proteins of mycobacterial whole cell lysates (lag, logarithmic and stationary phase; 50 mM HEPES/KOH pH 7.5, 10 mM MgCl2, 60 mM NH4Cl, 10% glycerol), 15% SDS-PAGE, blot with anti-dodecin serum.
Series [3] has as its target Recombinant M. tuberculosis H37Rv dodecin with C-terminal 6-His tag (Mycobacterium tuberculosis H37Rv) (UniProt I6XY36). Nature of the series: SDS-PAGE and western blotting of oligomer bands.
For series [4] the target is unchanged. In words: SDS-PAGE and western blotting of oligomer bands. The source holds these as a separate data set.
The target in series [5] is Recombinant M. bovis BCG Moreau dodecin with C-terminal 6-His tag (M. bovis BCG Moreau). In words: SDS-PAGE and western blotting of oligomer bands.
Series [6] shares this target. In words: SDS-PAGE and western blotting of oligomer bands. This is another data set of the same source.
Series [7] concerns the molecule itself. In words: SDS-PAGE and western blotting of oligomer bands; 20 ug total proteins of mycobacterial whole cell lysates (lag, logarithmic and stationary phase; 50 mM HEPES/KOH pH 7.5, 10 mM MgCl2, 60 mM NH4Cl, 10% glycerol), 15% SDS-PAGE, blot with anti-dodecin serum.

Read-outs that look alike come from different tables or passages of the source.

Consider “Native M. bovis BCG Moreau dodecin (natural protein)”, for which the stoichiometry N in series [1] and in series [2] was 6 throughout.
For the molecule “Recombinant M. tuberculosis H37Rv dodecin with C-terminal 6-His tag (from UniProt I6XY36 1-70) (natural protein)”, the stoichiometry N (usually a count of units in the complex or per binding partner) in series [3] was 4; in series [4], 12.
Regarding “Recombinant M. bovis BCG Moreau dodecin with C-terminal 6-His tag (natural protein)”, the stoichiometry N in series [5] was 12; in series [6] it was 4.

B1: Native M. tuberculosis H37Rv dodecin (natural protein)
chain: MSNHTYRVIEIVGTSPDGVDAAIQGGLARAAQTMRALDWFEVQSIRGHLVDGAVAHFQVTMKVGFRLEDS
notes: also called M.tb native dodecin; Tb
For B1, the “stoichiometry N” value in series [7] turned out to be 6.
